In publication PMC3326331 (Nucleic Acids Research, 2011):

Biological target: T1, His6-tagged human PSF (polypyrimidine tract binding protein associated splicing factor) (human, UniProt P23246 1-707)
T1 sequence (looked up): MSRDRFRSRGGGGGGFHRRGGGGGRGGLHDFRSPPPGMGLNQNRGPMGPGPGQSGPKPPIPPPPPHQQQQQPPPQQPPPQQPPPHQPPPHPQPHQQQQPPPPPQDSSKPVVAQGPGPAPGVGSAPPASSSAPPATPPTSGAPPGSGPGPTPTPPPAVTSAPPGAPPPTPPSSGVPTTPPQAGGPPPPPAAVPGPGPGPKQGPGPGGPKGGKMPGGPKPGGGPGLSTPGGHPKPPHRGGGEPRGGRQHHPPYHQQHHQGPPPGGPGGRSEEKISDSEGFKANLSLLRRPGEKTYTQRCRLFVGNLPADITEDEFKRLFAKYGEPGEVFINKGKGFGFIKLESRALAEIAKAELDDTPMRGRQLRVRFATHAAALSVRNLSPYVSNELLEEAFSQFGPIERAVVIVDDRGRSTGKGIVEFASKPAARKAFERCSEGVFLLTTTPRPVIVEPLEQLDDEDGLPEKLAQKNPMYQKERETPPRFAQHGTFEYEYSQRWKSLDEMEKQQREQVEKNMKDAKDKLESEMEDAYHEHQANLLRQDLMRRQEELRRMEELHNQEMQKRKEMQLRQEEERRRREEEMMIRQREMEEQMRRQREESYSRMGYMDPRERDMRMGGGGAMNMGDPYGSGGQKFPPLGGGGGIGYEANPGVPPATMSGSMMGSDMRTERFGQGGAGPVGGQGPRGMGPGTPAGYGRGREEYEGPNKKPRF
Assay: pull-down

B1: human RAD51 (natural protein, UniProt Q06609 1-339, looked up)
chain: MAMQMQLEANADTSVEEESFGPQPISRLEQCGINANDVKKLEEAGFHTVEAVAYAPKKELINIKGISEAKADKILAEAAKLVPMGFTTATEFHQRRSEIIQITTGSKELDKLLQGGIETGSITEMFGEFRTGKTQICHTLAVTCQLPIDRGGGEGKAMYIDTEGTFRPERLLAVAERYGLSGSDVLDNVAYARAFNTDHQTQLLYQASAMMVESRYALLIVDSATALYRTDYSGRGELSARQMHLARFLRMLLRLADEFGVAVVITNQVVAQVDGAAMFAADPKKPIGGNIIAHASTTRLYLRKGRGETRICKIYDSPCLPEAEAMFAINADGVGDAKD
B1: binds.

B2: human DMC1 (natural protein, UniProt Q14565 1-340, looked up)
chain: MKEDQVVAEEPGFQDEEESLFQDIDLLQKHGINVADIKKLKSVGICTIKGIQMTTRRALCNVKGLSEAKVDKIKEAANKLIEPGFLTAFEYSEKRKMVFHITTGSQEFDKLLGGGIESMAITEAFGEFRTGKTQLSHTLCVTAQLPGAGGYPGGKIIFIDTENTFRPDRLRDIADRFNVDHDAVLDNVLYARAYTSEHQMELLDYVAAKFHEEAGIFKLLIIDSIMALFRVDFSGRGELAERQQKLAQMLSRLQKISEEYNVAVFVTNQMTADPGATMTFQADPKKPIGGHILAHASTTRISLRKGRGELRIAKIYDSPEMPENEATFAITAGGIGDAKE
B2: binds.
